Experiments:
purified protein [1] = substrate: Nc1ncnc2c1ncn2[C@@H]1O[C@H](COP(=O)(O)OP(=O)(O)O[C@H]2O[C@H](CO)[C@@H](O)[C@H](O)[C@H]2O)[C@@H](O)[C@H]1O; assay: purified protein; format: biochemical, Synechocystis sp. PCC 6803; conditions: 1 mg/mL bovine glycogen primer, 12 mM MgCl2, 50 mM HEPES-NaOH pH 8.0, 30 °C, no GlgB
purified protein [2] = substrate: Nc1ncnc2c1ncn2[C@@H]1O[C@H](COP(=O)(O)OP(=O)(O)O[C@H]2O[C@H](CO)[C@@H](O)[C@H](O)[C@H]2O)[C@@H](O)[C@H]1O; assay: purified protein; format: biochemical, Escherichia coli; conditions: 1 nM enzyme, 1 mg/mL bovine glycogen primer, 12 mM MgCl2, 50 mM HEPES-NaOH pH 8.0, 30 °C, no GlgB

Protein | Km (purified protein [1]) | Km (purified protein [2])
GlgA1 (Synechocystis sp. PCC 6803 substr. Kazusa) (protein, full-length, N-terminal His tag, expressed in E. coli, IMAC and anion exchange) MKILFVAAEVSPLAKVGGMGDVVGSLPKVLHQLGHDVRVFMPYYGFIGDKIDVPKEPVWKGEAMFQQFAVYQSYLPDTKIPLYLFGHPAFDSRRIYGGDDEAWRFTFFSNGAAEFAWNHWKPEIIHCHDWHTGMIPVWMHQSPDIATVFTIHNLAYQGPWRGLLETMTWCPWYMQGDNVMAAAIQFANRVTTVSPTYAQQIQTPAYGEKLEGLLSYLSGNLVGILNGIDTEIYNPAEDRFISNVFDADSLDKRVKNKIAIQEETGLEINRNAMVVGIVARLVEQKGIDLVIQILDRFMSYTDSQLIILGTGDRHYETQLWQMASRFPGRMAVQLLHNDALSRRVYAGADVFLMPSRFEPCGLSQLMAMRYGCIPIVRRTGGLVDTVSFYDPINEAGTGYCFDRYEPLDCFTAMVRAWEGFRFKADWQKLQQRAMRADFSWYRSAGEYIKVYKGVVGKPEELSPMEEEKIAELTASYR | 152 ± 3.6 µM | 
GlgA2 (Synechocystis sp. PCC 6803 substr. Kazusa) (protein, full-length in pET28a, N-terminal His tag, expressed in E. coli, IMAC and anion exchange) MYIVQIASECAPVIKAGGLGDVIYGLSRELELRGHCVELILPMYDCMRYDHIWGLHDAYRNLEVPWYGSSIFCDVFCGWVHGRLCFFIQPKSSDNFFNRGHYYGALDDHMRFAFFSKAAMEFLLRSNKRPDIIHCHDWQTGLVPVLLYEIYRFHGMDHQRVCYTIHNFKHQGIAGANILHATGLNNDSYYFSYDRLQDNFNPNAINFMKGGIVYSNYVNTVSPHHAWEARFSDISCGLGHTLEIHQQKFGGILNGLDYEVWNPEIDPLLASNFSVKTFGDKAKNKQALRERLLLETDDKKPMLCFIGRLDGQKGVHLVHHSIYYALSQGAQFVLLGSATEPNLSKWFWHEKQHLNDNPNVHLELGFDEELAHLIYGAADIIVVPSNYEPCGLTQMIGLRYGAVPVVRGVGGLVNTVFDRDYDQNHPPEKRNGFVFYQPDEYALETALSRAIALYKDDPVAFKTLALQGMAYDYSWNKPGLQYVEAYEYIRA | 219 ± 9.9 µM | 
GlgA^ E.coli (Escherichia coli K-12) (protein, full-length in pET28a, N-terminal His tag, expressed in E. coli, IMAC and anion exchange) MQVLHVCSEMFPLLKTGGLADVIGALPAAQIADGVDARVLLPAFPDIRRGVTDAQVVSRRDTFAGHITLLFGHYNGVGIYLIDAPHLYDRPGSPYHDTNLFAYTDNVLRFALLGWVGAEMASGLDPFWRPDVVHAHDWHAGLAPAYLAARGRPAKSVFTVHNLAYQGMFYAHHMNDIQLPWSFFNIHGLEFNGQISFLKAGLYYADHITAVSPTYAREITEPQFAYGMEGLLQQRHREGRLSGVLNGVDEKIWSPETDLLLASRYTRDTLEDKAENKRQLQIAMGLKVDDKVPLFAVVSRLTSQKGLDLVLEALPGLLEQGGQLALLGAGDPVLQEGFLAAAAEYPGQVGVQIGYHEAFSHRIMGGADVILVPSRFEPCGLTQLYGLKYGTLPLVRRTGGLADTVSDCSLENLADGVASGFVFEDSNAWSLLRAIRRAFVLWSRPSLWRFVQRQAMAMDFSWQVAAKSYRELYYRLK |  | 275 ± 17 µM

From PMC13456619, “The (Glg)ABCs of cyanobacteria: modelling of glycogen synthesis and functional divergence of glycogen synthases in Synechocystis sp. PCC 6803” (Febs Letters, 2026)
